From US20150064204A1 (Amgen, published 2015)
Residue numbers refer to the chain shown, from its start.

T1: cynomolgus monkey GITR (cynomolgus monkey, UniProt Q9Y5U5 26-241 (human entry))
T1 construct: also called cyno GITR
T1 chain: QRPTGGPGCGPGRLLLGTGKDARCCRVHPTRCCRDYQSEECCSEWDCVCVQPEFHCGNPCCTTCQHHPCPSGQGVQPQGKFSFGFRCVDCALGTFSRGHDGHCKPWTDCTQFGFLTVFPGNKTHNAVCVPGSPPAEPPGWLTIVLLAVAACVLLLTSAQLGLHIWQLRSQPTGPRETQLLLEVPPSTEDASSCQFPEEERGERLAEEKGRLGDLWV

T2: human GITR (Glucocorticoid-induced TNFR-related gene, TNFRSF18) (human, UniProt Q9Y5U5 26-241)
T2 sequence: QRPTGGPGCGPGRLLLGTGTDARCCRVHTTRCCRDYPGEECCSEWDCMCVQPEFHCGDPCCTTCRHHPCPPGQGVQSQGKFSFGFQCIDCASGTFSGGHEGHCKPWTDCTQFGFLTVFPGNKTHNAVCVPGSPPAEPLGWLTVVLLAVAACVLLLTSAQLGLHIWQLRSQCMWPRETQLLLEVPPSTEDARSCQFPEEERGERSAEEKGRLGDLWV

T3: human GITR (human, UniProt Q9Y5U5 26-241)
T3 construct: also called TNFRSF18; Glucocorticoid-induced TNFR-related gene
T3 sequence: T2 sequence

B1: 7A10v1 (antibody, human IgG1, kappa, V domains shown)
VH: QVQLVESGGGVVQPGRSLRLSCAASGFTFSSYGMHWVRQAPGKGLEWMAVIWYVGSNKYYADSVKGRFTISRDNSKNTLYLQMNSLRAEDTAVYYCARGGELGRDYYSGMDVWGQGTTVTVSS
VL: DIQMTQSPSSLSASVGDRVTITCRASQGIRNDLGWYQQKPGKAPKRLIYAASSLQSGVPSRFSGSGSGTEFTLTISSLQPEDFATYYCQQHNSYPWTFGQGTKVEIKR
notes: Engineered variant; also called Ab39; SS-13810
B2: 41G5v2 (antibody, human IgG1, kappa, V domains shown)
VH: B1 VH with M48V, V54P, D62E, D105Y, S108Y
VL: B1 VL with I21V, Q89L, S93N, E105D
notes: Engineered variant; also called Ab56; SS-13809
B3: 9H6v3 (antibody, human IgG1, kappa, V domains shown)
VH: B1 VH with A23V, V37I, M48V, V54E, D62E, E101R, R104K
VL: B1 VL with A51T, Q89L, S93T
notes: Engineered variant; also called Ab46; SS-13806
B4: 33C9v2 (antibody, human IgG1, kappa, V domains shown)
VH: B1 VH with L4V, M48V, A49S, V54E, D62E, E101L, R104Y, D105Y, S108Y
VL: B1 VL with A50D, Q89L, N92H
notes: Engineered variant; also called Ab51; SS-13808
B5: 5H7v2 (antibody, human IgG1, kappa, V domains shown)
VH: QVQLQESGPGLVKPSETLSLTCTVSGGSISSGGYFWSWIRQPPGKGLEWIGYIYYSGTTYYNPSLKSRVTISIDTSKNQFSLKLSSVTAADTAVYYCARDLFYYDTSGPRGFDPWGQGTLVTVSS
VL: EIVLTQSPGTLSLSPGERATLSCRASQTVSSNYLAWYQQKPGQAPRLLIYGSSTRATGIPDRFSGSGSGTDFTLTISRLEPEDFAVYYCQQYDSSPWTFGQGTKVEIKR
notes: Engineered variant; also called Ab26; SS-13807
B6: 9H6 (antibody, human IgG1, kappa, V domains shown)
VH: B1 VH with A23V, V37I, M48V, V54E, E101R, R104K
VL: B1 VL with K45N, A51T, Q89L, S93T
notes: Fully human parental antibody; also called Ab19; SS-10945
B7: 41E11 (antibody, human IgG1, kappa, V domains shown)
VH: B1 VH with L4V, H35Y, M48V, V54E, K65R, V93L, E101Q, R104K
VL: B1 VL with G28V, Q89L, W96L, Q100G
notes: Fully human parental antibody; also called Ab6; SS-12417
B8: 46E11 (antibody, human IgG1, kappa, V domains shown)
VH: QVQLVESGGGVVQPGRSLRLSCAASGFTFSSYGMHWVRQAPGKGLEWVAVIWYAGSNKYYADSVKGRFTISRDNSKNTLYLQMNSLRAEDTAVYYCARGDILTGYSLYYGMDVWGQGTTVTVSS
VL: B1 VL with T69A, Q89L
notes: Fully human parental antibody; also called Ab11; SS-12421
B9: 49D9v1 (antibody, human IgG1, kappa, V domains shown)
VH: B1 VH with V2M, R16G, M48V, V54A, E101R, R104F, D105Y, S108Y
VL: B1 VL with Q89L, H91L
notes: tied to 49D9v1 by Ab22 / SS-12562; also called Ab22; SS-12562
B10: 48H12 (antibody, human IgG1, kappa, V domains shown)
VH: B1 VH with M48V, V54A, L79V, E101Q, G103A, R104L, D105Y, S108Y
VL: B1 VL with Q89L, S93N
notes: Fully human parental antibody; also called Ab12; SS-12422
B11: 44C1v1 (antibody, human IgG1, lambda, V domains shown)
VH: QVQLVESGGGVVQPGRSLRLSCAASGFTLSSYGMHWVRQAPGKGLEWVAVIWYDGSNKYYADSVKGRFTISRDNSKNTLYLQMNSLRAEDTAVYYCARRGTVTTPDFDYWGQGTLVTVSS
VL: QSALTQPASVSGSPGQSITISCTGTSSDVGTYNLVSWYQQHPGKAPKLMIYEVSKRPSGVSNRFSGSKSGNTASLTISGLQAEDEADYYCASYAGFSTWVFGGGTKLTVLG
notes: tied to 44C1v1 by Ab20 / SS-12514; also called Ab20; SS-12514
B12: 49E2v1 (antibody, human IgG1, lambda, V domains shown)
VH: QVQLVESGGGVVQPGRSLRLSCAASGFTFSSYGMHWVRQAPGKGLEWVAVIWSDGNNKYYEDSVKGRFTISRDSSKNTLFLQMNSLRAEDTAVYYCARDTATPFDYWGQGTLVTVSS
VL: B11 VL with T31I, Y51H, F96I
notes: tied to 49E2v1 by Ab23 / SS-12516; also called Ab23; SS-12516
B13: 45A8v1 (antibody, human IgG1, lambda, V domains shown)
VH: QVQLVESGGGVVQPGRSLRLSCAASGFTFSSYGMHWVRQAPGKGLEWVAVIWHDGSNKYYADSVKGRFTISKDNSKNTLYLQMNSLRAEDTAVYYCAREYGGNFDYWGQGTLVTVSS
VL: B11 VL with V60I, F96Y, G111R
notes: tied to 45A8v1 by Ab21 / SS-12515; also called Ab21; SS-12515
B14: 5H7 (antibody, human IgG1, kappa, V domains shown)
VH: B5 VH with E16Q, P42H, Q79H, T106S
VL: B5 VL
notes: Fully human parental antibody; also called Ab17; SS-10943
B15: 48A9v1 (antibody, human IgG1, kappa, V domains shown)
VH: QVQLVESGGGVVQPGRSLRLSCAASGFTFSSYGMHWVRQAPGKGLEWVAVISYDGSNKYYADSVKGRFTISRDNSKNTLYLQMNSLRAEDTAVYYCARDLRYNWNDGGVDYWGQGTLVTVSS
VL: DIQMTQSPSSLSASVGDRVIITCRASQSISSYLHWYKQKPGKAPKLLIYGASRLQSGVPSRFSGSGSGTDFTLTISSLQPEDFATYYCQQSSSTPLTFGGGTKVEIKR
notes: tied to 48A9v1 by Ab24 / SS-12513; also called Ab24; SS-12513

Target: T1, cynomolgus monkey GITR
Assay: cyno T cell binding EC50 against human T cell binding EC50

Row | Binder | Cyno:Hu Binding EC50 Ratio
1 | B1 | 6.4 ratio
2 | B2 | 4.6 ratio
3 | B3 | 7.1 ratio
4 | B4 | 8.6 ratio
5 | B5 | 3.7 ratio

The binders below were run against T2, human GITR (Glucocorticoid-induced …) (assay: cell-based or functional assay).

Row | Binder | IFNg Secretion (Fold over CD3) | IFNg Secretion EC50
6 | B6 | 1.9 fold over CD3 | 0.5 ng/mL
7 | B7 | 2 fold over CD3 | 0.3 ng/mL
8 | B8 | 2.2 fold over CD3 | 0.9 ng/mL
9 | B9 | 1.3 fold over CD3 | 0.5 ng/mL
10 | B10 | 1.2 fold over CD3 | 0.8 ng/mL
11 | B11 | 1.6 fold over CD3 | 11.4 ng/mL
12 | B12 | 1.9 fold over CD3 | 2.2 ng/mL
13 | B13 | 1.8 fold over CD3 | 0.7 ng/mL
14 | B14 | 2.9 fold over CD3 | 11.3 ng/mL
15 | B15 | 0.9 fold over CD3 | 79.1 ng/mL

The binders below were run against T3, human GITR (assay: flow cytometry, human T cell binding).

Row | Binder | EC50
16 | B1 | 27 ng/mL
17 | B2 | 33 ng/mL
18 | B3 | 26 ng/mL
19 | B4 | 35 ng/mL
20 | B5 | 164 ng/mL

Target: T1, cynomolgus monkey GITR
Assay: flow cytometry, cyno T cell binding

Row | Binder | EC50
21 | B1 | 173 ng/mL
22 | B2 | 153 ng/mL
23 | B3 | 184 ng/mL
24 | B4 | 301 ng/mL
25 | B5 | 619 ng/mL

What follows are binders tested against T3, human GITR (assay: cell-based or functional assay).

Row | Binder | Proliferation (Fold over CD3) | Proliferation EC50
26 | B1 | 3 fold over CD3 | 3 ng/mL
27 | B2 | 3.5 fold over CD3 | 3 ng/mL
28 | B3 | 3.7 fold over CD3 | 6 ng/mL
29 | B4 | 2.9 fold over CD3 | 7 ng/mL
30 | B5 | 3.2 fold over CD3 | 11 ng/mL

Each binder was assayed against T3, human GITR (assay: flow cytometry on activated human T cells).

Row | Binder | EC50
31 | B1 | 56 ng/mL
32 | B2 | 57 ng/mL
33 | B3 | 90 ng/mL
34 | B4 | 60 ng/mL
35 | B5 | 279 ng/mL

The binders below were run against T2, human GITR (Glucocorticoid-induced …) (assay: flow cytometry (MFI), antibody titration on anti-CD3-activated primary human T cells (CD25+CD4+)).
Experimental: Cells were collected and washed and then incubated at 4 C with titrations of the anti-human GITR antibodies or a human IgG1 isotype control antibody. After washing, cells were stained at 4 C with fluorochrome conjugated anti-human CD4 and anti-human CD25 antibodies to identify activated CD4+ effector T cells and with fluorochrome-conjugated anti-huIgG to detect bound anti-human GITR antibodies. The mean fluorescence intensity (MFI) of the anti-human GITR antibodies bound to CD25+CD4+ cells was determined by flow cytometry. The EC50s of the binding curves were calculated using GraphPad Prism® software.

Row | Binder | EC50
36 | B6 | 26 ng/mL
37 | B7 | 48 ng/mL
38 | B8 | 30 ng/mL
39 | B9 | 51 ng/mL
40 | B10 | 48 ng/mL
41 | B11 | 802 ng/mL
42 | B12 | 318 ng/mL
43 | B13 | 102 ng/mL
44 | B14 | 164 ng/mL
45 | B15 | 145 ng/mL

Target: T3, human GITR
Assay: cell-based or functional assay
Remark: another data set of the same source

Row | Binder | Activation EC50 ng/mL (IFNg secretion) | Proliferation (Fold over CD3)
46 | B1 | 0.32 ng/mL | 3 fold over CD3
47 | B2 | 0.64 ng/mL | 3.5 fold over CD3
48 | B3 | 0.06 ng/mL | 3.7 fold over CD3
49 | B4 | 0.86 ng/mL | 2.9 fold over CD3
50 | B5 | 1.6 ng/mL | 3.2 fold over CD3
